In the supplement of paper PMC9112550, “Optimization of the antimicrobial peptide Bac7 by deep mutational scanning” (BMC Biology, 2022):

tested on: Escherichia coli TOP10; assay: shrunken log2 fold change of peptide-encoding DNA abundance (4.5 h post-induction vs induction); higher = less antimicrobial activity (less host growth inhibition); conditions: time post-induction: 4.5 h; library: site-saturation at positions 5, 18, 19, 20
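Further: peptides expressed intracellularly from a pBAD plasmid library in pooled LB shake-flask culture, induced with 0.3% L-arabinose, DNA abundance read by NGS, three biological replicates, DESeq2 with apeglm shrinkage.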

Going from RRIRCRPPRLPRPRPRPPGMPRP to RRIRDRPPRLPRPRPRPAYVPRP, the “shrunken log2 fold change” value falls from 0.326 to -0.00133.

Compared with RRIRLRPPRLPRPRPRPTYSPRP, RRIRNRPPRLPRPRPRPRIVPRP is higher in “shrunken log2 fold change” value: -0.572 for the first, -0.191 for the second.

RRIRQRPPRLPRPRPRPWHEPRP and RRIRGRPPRLPRPRPRPFAYPRP are within 0.2 log units of each other in “shrunken log2 fold change” value: -0.00567 for the first, 0.184 for the second.

First: RRIRARPPRLPRPRPRPVMCPRP
Second: RRIRGRPPRLPRPRPRPDAMPRP
The “shrunken log2 fold change” value of the first is lower: 0.0832 for the first, 2.4 for the second.

Going from RRIRHRPPRLPRPRPRPLIHPRP to RRIRERPPRLPRPRPRPCARPRP, the “shrunken log2 fold change” value rises from -0.575 to 0.0326.

Compared with RRIRFRPPRLPRPRPRPQLEPRP, RRIRYRPPRLPRPRPRPYKNPRP is lower in “shrunken log2 fold change” value: 0.118 for the first, -1.42 for the second.

RRIRWRPPRLPRPRPRPIIPPRP and RRIRMRPPRLPRPRPRPYDHPRP are within 0.2 log units of each other in “shrunken log2 fold change” value: -0.104 for the first, -0.141 for the second.

RRIRHRPPRLPRPRPRPWMPPRP and RRIRKRPPRLPRPRPRPFANPRP are within 0.2 log units of each other in “shrunken log2 fold change” value: 0.0474 for the first, -0.0377 for the second.

RRIRGRPPRLPRPRPRPQKQPRP and RRIRARPPRLPRPRPRPGYCPRP are within 0.2 log units of each other in “shrunken log2 fold change” value: 0.154 for the first, -0.012 for the second.

Going from RRIRHRPPRLPRPRPRPHTVPRP to RRIRIRPPRLPRPRPRPQDPPRP, the “shrunken log2 fold change” value rises from -0.606 to -0.235.

Compared with RRIRMRPPRLPRPRPRPYYNPRP, RRIRGRPPRLPRPRPRPMQMPRP is higher in “shrunken log2 fold change” value: -0.709 for the first, 1.5 for the second.

RRIRYRPPRLPRPRPRPYIMPRP and RRIRVRPPRLPRPRPRPTKAPRP are within 0.2 log units of each other in “shrunken log2 fold change” value: -0.223 for the first, -0.142 for the second.

First: RRIRYRPPRLPRPRPRPLAIPRP
Second: RRIRQRPPRLPRPRPRPATQPRP
The “shrunken log2 fold change” value of the first is lower: -0.778 for the first, 0.176 for the second.

Going from RRIRERPPRLPRPRPRPVSGPRP to RRIRPRPPRLPRPRPRPQCWPRP, the “shrunken log2 fold change” value falls from 0.386 to 0.0194.

RRIRFRPPRLPRPRPRPDDQPRP and RRIRFRPPRLPRPRPRPHIFPRP are within 0.2 log units of each other in “shrunken log2 fold change” value: -0.151 for the first, -0.021 for the second.

First: RRIRDRPPRLPRPRPRPYNDPRP
Second: RRIRQRPPRLPRPRPRPKVSPRP
The “shrunken log2 fold change” value of the first is lower: -0.307 for the first, -0.073 for the second.

Compared with RRIRYRPPRLPRPRPRPNLEPRP, RRIRKRPPRLPRPRPRPLRLPRP is higher in “shrunken log2 fold change” value: -0.113 for the first, 1.16 for the second.

First: RRIRARPPRLPRPRPRPDVEPRP
Second: RRIRKRPPRLPRPRPRPCVEPRP
The “shrunken log2 fold change” value of the first is higher: 0.389 for the first, 0.13 for the second.

First: RRIRTRPPRLPRPRPRPQLKPRP
Second: RRIRERPPRLPRPRPRPHRLPRP
The “shrunken log2 fold change” value of the first is higher: 0.0828 for the first, -0.18 for the second.

Compared with RRIRRRPPRLPRPRPRPREAPRP, RRIRKRPPRLPRPRPRPCKKPRP is lower in “shrunken log2 fold change” value: 0.254 for the first, -0.0301 for the second.

First: RRIRGRPPRLPRPRPRPFNVPRP
Second: RRIRIRPPRLPRPRPRPSPLPRP
The “shrunken log2 fold change” value of the first is higher: -0.101 for the first, -0.499 for the second.

Going from RRIRSRPPRLPRPRPRPFEWPRP to RRIRLRPPRLPRPRPRPGVAPRP, the “shrunken log2 fold change” value rises from 0.0589 to 0.529.

First: RRIRERPPRLPRPRPRPVSNPRP
Second: RRIRYRPPRLPRPRPRPCFYPRP
The “shrunken log2 fold change” value of the first is lower: -1.12 for the first, -0.909 for the second.

Going from RRIRDRPPRLPRPRPRPGETPRP to RRIRSRPPRLPRPRPRPDACPRP, the “shrunken log2 fold change” value rises from 0.0408 to 0.322.

RRIRIRPPRLPRPRPRPRHFPRP and RRIRVRPPRLPRPRPRPKQGPRP are within 0.2 log units of each other in “shrunken log2 fold change” value: -0.00457 for the first, 0.0222 for the second.

RRIRRRPPRLPRPRPRPKMNPRP and RRIRTRPPRLPRPRPRPNCFPRP are within 0.2 log units of each other in “shrunken log2 fold change” value: -0.0665 for the first, -0.0362 for the second.

RRIRDRPPRLPRPRPRPFNIPRP and RRIRDRPPRLPRPRPRPDEQPRP are within 0.2 log units of each other in “shrunken log2 fold change” value: 0.0125 for the first, 0.0528 for the second.

RRIRYRPPRLPRPRPRPTGLPRP and RRIRCRPPRLPRPRPRPHSIPRP are the same in “shrunken log2 fold change” value: -0.101 for the first, -0.101 for the second.

First: RRIRFRPPRLPRPRPRPLEKPRP
Second: RRIRTRPPRLPRPRPRPNKDPRP
The “shrunken log2 fold change” value of the first is higher: -0.14 for the first, -0.54 for the second.

RRIRCRPPRLPRPRPRPAVSPRP and RRIRRRPPRLPRPRPRPFPYPRP are within 0.2 log units of each other in “shrunken log2 fold change” value: -0.345 for the first, -0.28 for the second.

First: RRIRYRPPRLPRPRPRPDDKPRP
Second: RRIRLRPPRLPRPRPRPKSEPRP
The “shrunken log2 fold change” value of the first is lower: -1.56 for the first, 0.0422 for the second.

Going from RRIRRRPPRLPRPRPRPFGEPRP to RRIRIRPPRLPRPRPRPHCCPRP, the “shrunken log2 fold change” value falls from 0.412 to -0.642.

RRIRLRPPRLPRPRPRPHMKPRP and RRIRHRPPRLPRPRPRPMLMPRP are within 0.2 log units of each other in “shrunken log2 fold change” value: -0.024 for the first, -0.121 for the second.

RRIRWRPPRLPRPRPRPCYKPRP and RRIRSRPPRLPRPRPRPVHHPRP are within 0.2 log units of each other in “shrunken log2 fold change” value: -0.00556 for the first, 0.0874 for the second.

First: RRIRCRPPRLPRPRPRPDKCPRP
Second: RRIRMRPPRLPRPRPRPGDMPRP
The “shrunken log2 fold change” value of the first is lower: -0.325 for the first, 0.484 for the second.

RRIRFRPPRLPRPRPRPPHEPRP and RRIRRRPPRLPRPRPRPDRYPRP are within 0.2 log units of each other in “shrunken log2 fold change” value: -0.064 for the first, -0.0438 for the second.

RRIRPRPPRLPRPRPRPFHIPRP and RRIRGRPPRLPRPRPRPDKQPRP are within 0.2 log units of each other in “shrunken log2 fold change” value: -0.161 for the first, 0.0252 for the second.

For RRIRNRPPRLPRPRPRPHYIPRP, the “shrunken log2 fold change” value was -0.842.
